Consider four molecules from patent publication US20220135701A1 (Genentech, published 2022).

For test [1], the target named is T1, mouse MerTK on mouse macrophages (mouse, UniProt Q60805 19-994).
T1 sequence (looked up): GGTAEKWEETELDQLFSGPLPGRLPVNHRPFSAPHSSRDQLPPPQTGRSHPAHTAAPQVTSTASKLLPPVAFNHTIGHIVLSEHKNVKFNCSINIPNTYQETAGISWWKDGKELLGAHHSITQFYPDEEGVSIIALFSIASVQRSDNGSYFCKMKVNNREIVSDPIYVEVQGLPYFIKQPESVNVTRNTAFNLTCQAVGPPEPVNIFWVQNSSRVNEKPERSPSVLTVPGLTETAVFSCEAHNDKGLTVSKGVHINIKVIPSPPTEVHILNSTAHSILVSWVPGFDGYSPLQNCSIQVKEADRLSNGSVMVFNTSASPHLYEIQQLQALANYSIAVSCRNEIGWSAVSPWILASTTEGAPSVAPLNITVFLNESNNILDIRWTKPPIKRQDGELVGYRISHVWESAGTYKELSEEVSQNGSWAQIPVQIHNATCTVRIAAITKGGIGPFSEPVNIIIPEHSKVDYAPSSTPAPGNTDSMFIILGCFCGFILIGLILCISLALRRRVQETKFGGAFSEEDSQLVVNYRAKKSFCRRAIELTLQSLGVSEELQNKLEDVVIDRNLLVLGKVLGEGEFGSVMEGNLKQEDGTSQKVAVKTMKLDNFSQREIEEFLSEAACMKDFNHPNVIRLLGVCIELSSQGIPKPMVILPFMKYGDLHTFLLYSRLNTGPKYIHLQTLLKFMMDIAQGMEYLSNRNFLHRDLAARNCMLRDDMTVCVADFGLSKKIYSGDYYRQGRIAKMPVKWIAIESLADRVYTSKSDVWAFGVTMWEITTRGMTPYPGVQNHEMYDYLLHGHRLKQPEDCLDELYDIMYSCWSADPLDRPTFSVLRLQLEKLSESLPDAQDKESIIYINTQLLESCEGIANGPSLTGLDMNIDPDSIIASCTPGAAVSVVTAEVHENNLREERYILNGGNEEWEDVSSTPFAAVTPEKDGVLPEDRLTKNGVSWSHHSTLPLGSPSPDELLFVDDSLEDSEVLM
Description: cell-based or functional assay.

The target of test [2] is T1, mouse MerTK on mouse macrophages. Description: cell-based or functional assay. This is another data set of the same source.
A further test deals with T2, mouse MerTK (mouse, UniProt Q60805 23-496).
T2 construct: also called MuMER
T2 sequence (looked up): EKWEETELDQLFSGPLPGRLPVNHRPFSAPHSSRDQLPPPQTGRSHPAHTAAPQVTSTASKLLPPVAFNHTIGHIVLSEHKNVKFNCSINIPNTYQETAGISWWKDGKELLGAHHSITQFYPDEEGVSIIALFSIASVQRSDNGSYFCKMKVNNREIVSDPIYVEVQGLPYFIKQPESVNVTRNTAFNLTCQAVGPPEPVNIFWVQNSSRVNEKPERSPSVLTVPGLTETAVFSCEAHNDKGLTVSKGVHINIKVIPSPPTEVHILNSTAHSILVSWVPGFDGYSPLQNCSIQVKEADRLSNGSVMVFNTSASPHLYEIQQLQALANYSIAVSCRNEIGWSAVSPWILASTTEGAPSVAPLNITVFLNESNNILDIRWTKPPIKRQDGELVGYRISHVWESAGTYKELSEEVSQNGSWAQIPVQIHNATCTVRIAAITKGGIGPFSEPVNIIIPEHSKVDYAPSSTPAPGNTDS
Description: SPR BIAcore T200, Ab captured, 25C. In outline:
(§1)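 Rabbit or humanized antibody captured to ~100 RU; MerTK injected as 3-fold dilutions from 0.4 nM to 100 nM in HBS-EP (HEPES pH 7.4) at 30 μl/min, at 25° C. or 37° C. kon and koff fitted to a 1:1 Langmuir model; KD = koff/kon.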

The next test has as its target T3, MuMER.Ig1&2 (A70-P279) (mouse, UniProt Q60805 70-279).
T3 construct: range 70-279; also called mouse MerTK Ig-like 1&2 domains
T3 sequence (looked up): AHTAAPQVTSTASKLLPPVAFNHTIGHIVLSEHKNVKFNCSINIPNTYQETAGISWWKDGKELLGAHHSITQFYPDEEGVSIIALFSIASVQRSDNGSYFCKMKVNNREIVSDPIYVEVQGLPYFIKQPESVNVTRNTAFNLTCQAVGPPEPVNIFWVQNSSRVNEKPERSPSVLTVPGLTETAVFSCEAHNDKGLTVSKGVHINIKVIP
Description: SPR BIAcore T200, Ab captured, 25C. In outline:
(§2)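 Rabbit antibody captured to ~100 RU; MerTK domain injected as 3-fold dilutions (0.4–100 nM) in HBS-EP pH 7.4 at 25 °C, 30 μl/min. kon and koff from 1:1 Langmuir fit; KD = koff/kon.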
A general note: In SPR one partner is held on a chip, and binding of the other changes the refractive index at the surface.

Another test addresses T4, MuMER.Ig1 (A70-G190) (mouse, UniProt Q60805 70-190).
T4 construct: range 70-190; also called mouse MerTK Ig-like 1 domain
T4 sequence (looked up): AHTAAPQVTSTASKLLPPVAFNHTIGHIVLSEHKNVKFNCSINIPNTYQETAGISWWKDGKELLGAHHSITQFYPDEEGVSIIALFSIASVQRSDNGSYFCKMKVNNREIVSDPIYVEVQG
Kind of test: SPR BIAcore T200, Ab captured, 25C. In outline: as §2

A further test has as its target T5, MuMER (E23-S496) (mouse, UniProt Q60805 23-496).
T5 construct: range 23-496; also called mouse MerTK extracellular domain
T5 sequence (looked up): T2 sequence (looked up)
Description: SPR BIAcore T200, Ab captured, 25C. Summed up:
as §2

A further test has as its target T6, human MerTK (human, UniProt Q12866 26-499).
T6 construct: also called HuMER
T6 sequence: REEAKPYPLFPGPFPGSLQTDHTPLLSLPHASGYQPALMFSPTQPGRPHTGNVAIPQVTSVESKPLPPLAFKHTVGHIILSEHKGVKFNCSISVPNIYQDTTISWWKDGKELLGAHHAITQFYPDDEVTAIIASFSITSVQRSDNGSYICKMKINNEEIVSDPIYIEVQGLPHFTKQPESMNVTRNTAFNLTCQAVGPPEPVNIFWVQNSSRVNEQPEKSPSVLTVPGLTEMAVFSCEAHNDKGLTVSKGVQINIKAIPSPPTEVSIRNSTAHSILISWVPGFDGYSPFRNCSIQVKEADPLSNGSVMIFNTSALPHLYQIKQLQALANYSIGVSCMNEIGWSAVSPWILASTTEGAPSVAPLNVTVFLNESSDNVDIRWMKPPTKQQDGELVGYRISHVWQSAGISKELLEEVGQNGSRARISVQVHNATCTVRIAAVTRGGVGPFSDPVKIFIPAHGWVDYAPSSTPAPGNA
Description: SPR BIAcore T200, Ab captured, 25C. In outline:
as §1

The target of another test is T7, cynomolgus monkey MerTK (cynomolgus monkey, UniProt A0A2K5V1H9 32-505).
T7 construct: Soluble analyte in SPR; also called Cyno MerTK
T7 sequence: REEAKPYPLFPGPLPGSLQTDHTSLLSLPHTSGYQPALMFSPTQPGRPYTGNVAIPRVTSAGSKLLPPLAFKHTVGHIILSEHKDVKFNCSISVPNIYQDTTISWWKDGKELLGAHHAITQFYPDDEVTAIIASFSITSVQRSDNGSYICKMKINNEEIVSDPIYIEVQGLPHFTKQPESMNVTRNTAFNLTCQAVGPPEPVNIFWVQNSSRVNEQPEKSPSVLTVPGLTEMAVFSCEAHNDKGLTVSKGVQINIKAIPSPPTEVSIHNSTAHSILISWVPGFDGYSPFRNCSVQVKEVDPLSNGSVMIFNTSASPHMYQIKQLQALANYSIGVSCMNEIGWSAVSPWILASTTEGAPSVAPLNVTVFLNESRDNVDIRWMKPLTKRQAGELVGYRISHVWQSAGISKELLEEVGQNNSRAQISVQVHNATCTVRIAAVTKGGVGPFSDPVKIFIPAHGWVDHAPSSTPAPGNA
Description: SPR BIAcore T200, Ab captured, 25C. Summed up: as §1

For the next test, the target named is T8, HuMER (R26-A499) (human, UniProt Q12866 26-499).
T8 construct: Extracellular domain with both Ig-like and both fibronectin-like domains; also called human MerTK extracellular domain
T8 sequence: T6 sequence
Kind of test: SPR BIAcore T200, Ab captured, 25C. Summed up: as §2

The next test has as its target T9, HuMER.Ig1&2 (G76-P284) (human, UniProt Q12866 76-284).
T9 construct: also called human MerTK Ig-like 1&2 domains
T9 sequence: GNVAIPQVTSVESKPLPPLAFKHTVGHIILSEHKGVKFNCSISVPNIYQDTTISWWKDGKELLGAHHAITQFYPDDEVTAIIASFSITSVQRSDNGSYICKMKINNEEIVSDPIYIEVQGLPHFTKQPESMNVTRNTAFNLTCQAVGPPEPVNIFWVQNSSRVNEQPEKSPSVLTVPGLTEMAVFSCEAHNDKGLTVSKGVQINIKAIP
Description: SPR BIAcore T200, Ab captured, 25C. Summed up:
as §2

In the next test the target is T10, HuMER.Ig1 (G76-G195) (human, UniProt Q12866 76-195).
T10 construct: also called human MerTK Ig-like 1 domain
T10 sequence: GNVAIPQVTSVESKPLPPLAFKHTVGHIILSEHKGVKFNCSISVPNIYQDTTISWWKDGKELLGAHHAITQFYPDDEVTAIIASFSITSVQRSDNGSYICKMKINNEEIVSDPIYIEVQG
Description: SPR BIAcore T200, Ab captured, 25C. Summed up:
as §2

B1: anti-MerTK 14C9 (mIgG2a LALAPG) (antibody, V domains shown)
VH: QSVEESGGRLVTPGTPLTLTCTVSGIDLSANTMNWVRQAPGKGLEWIGIFTATGSTYYATWVNGRFTISKTSTTVDLKITSPTTEDTATYFCARSGSGSSSGAFNIWGPGTLVTVSL
VL: DPVLTQTPASVSEPVGGTVTIKCQASQSISSSLAWYQQKPGQPPKLLIYAASILASEISSRFKGSRSGTEFTLTISDLECADAATYYCQCTSYGSLFLGPFGGGTEVVVK
On to B1, for which, in [1], the “fold decrease in phagocytic clearance of apoptotic thymocytes by peritoneal macrophages, against control anti-gp120” value is around 8 fold and the “fold potency in inhibiting mouse macrophage phagocytosis, against h10F7.v16” value was 4.8 fold. Moreover, the “IC50 (nM), efferocytosis by mouse macrophages, Average” value in test [2] stood at 0.19 nM.

B2: Rbt14C9 (antibody, V domains shown)
VH: B1 VH
VL: B1 VL
notes: Recombinant rabbit monoclonal antibody, Expi293, protein A purified
For orientation: Kd means the equilibrium constant for the complex coming apart. In the case of B2, the dissociation constant Kd in the test with mouse MerTK turned out to be 0.6 nM; with MuMER.Ig1&2 (A70-P279) it was 0.5 nM; with MuMER.Ig1 (A70-G190) it was 0.1 nM; in the test with MuMER (E23-S496) it was 0.6 nM.

B3: Rbt12H4 (antibody, V domains shown)
VH: QSVEESGGRLVTPGTPLTVTCTVSGFSLSVYGMGWVRQAPGKGLEYIGFINNVGNTYYASWAKGRFTISKTSTTVDLKITSPTTEDTATYFCAKGGGGDWGYFNIWGPGTLVTVSL
VL: DVVMTQTPASVEAAVGGTVTIKCQASQSIGNALAWYQQKPGQRPKLLIYAASNLASGVPSRFAGSGSGTQFTLTISDLECADAATYYCQTYYAINRYGGAFGGGTEVVVK
notes: as for B2
For the molecule B3, the Kd is 18 nM with human MerTK; 13.9 nM in the test with cynomolgus monkey MerTK; 8.5 nM with mouse MerTK; 11 nM with MuMER.Ig1&2 (A70-P279); 2.2 nM in the test with MuMER.Ig1 (A70-G190); 18 nM in the test with HuMER (R26-A499). The Kd with HuMER.Ig1&2 (G76-P284) was 92 nM; with HuMER.Ig1 (G76-G195), 16.7 nM; in the test with MuMER (E23-S496), 8.5 nM.

B4: Rbt18G7 (antibody, V domains shown)
VH: QSLEESGGRLVTPGTPLTLTCTVSGIDLSSYALGWVRQAPGKGLEYIGIISSTGTTYYATWAKGRFTISKTSSTTVDLKITGPTTEDTATYFCARGAYAGYVAFGPYYFHIWGPGTLVTISL
VL: DIVMTQTPASVEAAVGGTVTIKCQASQSISNFLAWYQQKPGQPPKVLIYAASHLASGVPSRFKGSGSGTQFTLTISDLECADAATYYCQSYFYSSTSIYNAFGGGTEVVVR
notes: as for B2
Turning to B4, the dissociation constant (Kd) with human MerTK amounted to 2.3 nM; with cynomolgus monkey MerTK, 4.3 nM; with mouse MerTK, 1.7 nM; with MuMER.Ig1&2 (A70-P279), 1.9 nM; with MuMER.Ig1 (A70-G190), 0.2 nM; with HuMER (R26-A499) it was 2.3 nM. In addition, the dissociation constant Kd in the test with HuMER.Ig1&2 (G76-P284) is 21 nM; with HuMER.Ig1 (G76-G195), 0.5 nM; in the test with MuMER (E23-S496) it was 1.7 nM.
